Laboratory results taken from patent US20210155689A1 (SHANGHAI PHARMAEXPLORER, published 2021).
Numbering of substitutions follows the chain as printed.

T1: monkey LAG-3 (full length, on the cell surface) (monkey, UniProt P18627 24-525 (human entry))
T1 construct: also called HEK293-cLAG-3; monkey LAG-3 protein on the cell surface
T1 chain: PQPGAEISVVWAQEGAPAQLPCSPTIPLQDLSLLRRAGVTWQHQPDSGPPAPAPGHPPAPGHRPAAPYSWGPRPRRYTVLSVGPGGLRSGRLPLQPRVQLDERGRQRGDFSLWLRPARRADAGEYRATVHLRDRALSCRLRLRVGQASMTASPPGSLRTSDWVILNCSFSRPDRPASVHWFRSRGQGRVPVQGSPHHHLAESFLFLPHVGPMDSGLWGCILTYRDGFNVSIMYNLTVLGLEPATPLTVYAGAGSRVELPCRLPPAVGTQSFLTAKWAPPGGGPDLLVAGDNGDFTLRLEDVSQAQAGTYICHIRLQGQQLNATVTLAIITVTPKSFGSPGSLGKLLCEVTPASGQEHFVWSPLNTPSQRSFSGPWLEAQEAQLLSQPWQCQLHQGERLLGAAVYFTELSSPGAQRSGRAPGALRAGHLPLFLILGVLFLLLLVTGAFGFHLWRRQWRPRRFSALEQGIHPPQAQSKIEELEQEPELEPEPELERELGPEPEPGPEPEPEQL

T2: human LAG-3 on cells (HEK293-hLAG-3 stable cell line) (human, UniProt P18627 23-525)
T2 sequence: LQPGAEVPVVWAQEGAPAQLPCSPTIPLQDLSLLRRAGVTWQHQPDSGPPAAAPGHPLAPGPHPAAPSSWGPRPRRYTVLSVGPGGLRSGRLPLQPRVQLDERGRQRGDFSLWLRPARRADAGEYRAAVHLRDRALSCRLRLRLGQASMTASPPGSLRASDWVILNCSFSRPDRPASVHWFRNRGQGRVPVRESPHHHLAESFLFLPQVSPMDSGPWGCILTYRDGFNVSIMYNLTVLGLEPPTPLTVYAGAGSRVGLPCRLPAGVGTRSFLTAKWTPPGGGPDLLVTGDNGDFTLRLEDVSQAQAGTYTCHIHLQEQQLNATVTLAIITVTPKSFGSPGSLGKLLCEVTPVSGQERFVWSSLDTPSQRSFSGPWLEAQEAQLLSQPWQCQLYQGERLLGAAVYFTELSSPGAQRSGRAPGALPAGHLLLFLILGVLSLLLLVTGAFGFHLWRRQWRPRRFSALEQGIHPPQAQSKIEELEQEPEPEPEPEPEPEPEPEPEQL

T3: monkey LAG-3 on cells (HEK293-cLAG-3 stable cell line) (monkey, UniProt P18627 24-525 (human entry))
T3 construct: Full-length monkey (Chinese monkey) LAG-3 gene expressed on HEK293 cells
T3 chain: T1 chain

T4: mouse LAG-3 protein with hFc tag (mLAG-3-hFc protein) (mouse; human, UniProt Q61790 24-442)
T4 construct: Made in HEK293 cells; also called mouse LAG-3 extracellular domain protein; not shown: human IgG Fc fragment (hFc) of the pCpC vector
T4 sequence: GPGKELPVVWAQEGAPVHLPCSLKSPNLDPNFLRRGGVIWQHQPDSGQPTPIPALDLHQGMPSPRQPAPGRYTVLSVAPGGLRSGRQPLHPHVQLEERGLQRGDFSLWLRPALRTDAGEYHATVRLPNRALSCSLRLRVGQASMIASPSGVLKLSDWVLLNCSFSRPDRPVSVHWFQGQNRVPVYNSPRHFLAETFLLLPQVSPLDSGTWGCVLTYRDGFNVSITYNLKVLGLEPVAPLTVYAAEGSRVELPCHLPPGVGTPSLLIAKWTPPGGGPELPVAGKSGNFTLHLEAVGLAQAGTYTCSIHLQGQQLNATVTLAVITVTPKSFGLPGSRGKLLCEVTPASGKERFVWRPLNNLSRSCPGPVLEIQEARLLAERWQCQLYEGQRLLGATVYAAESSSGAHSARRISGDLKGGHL

B1: 405B8H3 (mouse antibody purified from hybridoma) (antibody, V domains shown)
VH: QVQLQQSGAELVRPGASVTLSCKASGYTFTDYEMHWVKQTPVHGLEWIGATDPETGNSAYNQKFKGKAIMTADKSSSTAYMELRSLTSEDSAVYYCISTGWNDWGQGTSLTVSS
VL: DIKMTQSPSSMYASLGERVTITCKASQDINSYLSWFQQKPGKSPKTLIYRADRLLDGVPSRFSGSGSGQDYSLTISSLEYGDMGIYYCLQYDEFPYTFGGGTKLEIK
notes: also called mAb103-405B8H3; 405B81-13
B2: 105F1E10 (mouse antibody purified from hybridoma) (antibody, V domains shown)
VH: EVQLQQSGPELVKPGASVKMSCRASGYTFTDFKMHWMKQSHGKSLEWIGYIAPNNGGTAYNQKFRGKATLTVNESSNTAYMELRSLTSEDSAVYYCVDWDDVDYWGQGTTLTVSS
VL: B1 VL with P40S, D52N, L55V, G81E, D92V, Y96L, G100A, I106L
notes: also called mAb009-105F1E10
B3: 409D4E10 (mouse antibody purified from hybridoma) (antibody, V domains shown)
VH: B1 VH with Y27N, G56D, S58T, M70L, A72T, S98T, T99S
VL: B1 VL with D52N, G81E, D92N
notes: also called mAb112-409D4E10
B4: 409B11E12 (mouse antibody purified from hybridoma) (antibody, V domains shown)
VH: B1 VH with P41T, G56S, N57Y, M70L, S98A
VL: B1 VL with I2L, D52N, G81E
notes: also called mAb104-409B11E12
B5: 556F6B8 (mouse antibody purified from hybridoma) (antibody, V domains shown)
VH: RVQLKQSGPGLVQPSQSLSITCTVSGFSLIKYGVHWVRQSPGEGLEWLGVIWRGGITDYNAAFMSRLSITKDNSKSQVFFKMNSLQADDTAIYYCAKWDGPLAMDYWGQGTSVTVSS
VL: DIVMTQSHKFLSTSVGDRVSITCKASQDVGTTVAWYQQKPGQSPKLLIYWASTRHTGVPDRFTGSGSGTDFTLTISNVQSEDLADYFCQQYSSYPYTFGGGTKLEIK
notes: also called mAb123-556F6B8
B6: 105F1E10 mouse-human chimeric antibody (antibody, V domains shown)
VH: B2 VH
VL: B1 VL with P40S, D52N, L55V, G81E, D92V, Y96L, G100A, I106L
notes: also called mAb009-105F1E10
B7: 405B8H3 mouse-human chimeric antibody (antibody, V domains shown)
VH: B1 VH
VL: B1 VL
notes: also called mAb103-405B8H3
B8: 409B11E12 mouse-human chimeric antibody (antibody, V domains shown)
VH: B1 VH with P41T, G56S, N57Y, M70L, S98A
VL: B1 VL with I2L, D52N, G81E
notes: also called mAb104-409B11E12
B9: 409D4E10 mouse-human chimeric antibody (antibody, V domains shown)
VH: B1 VH with Y27N, G56D, S58T, M70L, A72T, S98T, T99S
VL: B1 VL with D52N, G81E, D92N
notes: also called mAb112-409D4E10
B10: 556F6B8 mouse-human chimeric antibody (antibody, V domains shown)
VH: B5 VH
VL: B5 VL
notes: also called mAb123-556F6B8; 556F8B8
B11: 405B8H3 (LAG-3 mouse-human chimeric antibody) (antibody, V domains shown)
VH: B1 VH
VL: B1 VL
notes: also called mouse-human chimeric antibody 405B8H3
B12: 105F1E10 (LAG-3 mouse-human chimeric antibody) (antibody, V domains shown)
VH: B2 VH
VL: B1 VL with P40S, D52N, L55V, G81E, D92V, Y96L, G100A, I106L
B13: 409D4E10 (LAG-3 mouse-human chimeric antibody) (antibody, V domains shown)
VH: B1 VH with Y27N, G56D, S58T, M70L, A72T, S98T, T99S
VL: B1 VL with D52N, G81E, D92N
B14: 409B11E12 (LAG-3 mouse-human chimeric antibody) (antibody, V domains shown)
VH: B1 VH with P41T, G56S, N57Y, M70L, S98A
VL: B1 VL with I2L, D52N, G81E
B15: 556F6B8 (LAG-3 mouse-human chimeric antibody) (antibody, V domains shown)
VH: B5 VH
VL: B5 VL
notes: also called 556F8B8

Molecular target: T1, monkey LAG-3 (full length, on the cell …)
Assay: FACS, HEK293-cLAG-3; 200.000 nM
From the text: (§1) The pIRES plasmid with the monkey-derived full-length gene was transfected into the HEK293 cell line to construct a HEK293 stable cell line containing monkey LAG-3 (herein referred to as HEK293-cLAG-3 stable cell line). The HEK293-hLAG-3 stable cell line and HEK293-cLAG-3 stable cell line were expanded in a T-75 cell culture flask to a 90% confluence. The medium was aspirated, and the cells were washed with HBSS (Hanks' Balanced Salt Solution) 1-2 times, then treated with a enzyme-free cell dissociation fluid (Versene solution: Life technology) and the cells were collected. The cells were washed with HBSS buffer for 1-2 times. After counted, the cells were diluted with HBSS to 1-2×10⁶ cells per ml, added with 1% goat serum blocking solution, incubated on ice for 20-30 minutes, and then washed with HBSS for 2 times by centrifugation. The collected cells were suspended in the FACS buffer (HBSS+1% BSA) to 2×10⁶ cells/ml, added as 100 microliters per well to a 96-well FACS reaction plate, added with 100 microliters per well of the antibody sample to be tested, incubated on ice for 1-2 hours. The plate was washed twice with the FACS buffer by centrifugation, added with 100 microliters of fluorescent (Alexa 488)-labeled secondary antibodies per well, and incubated on ice for 0.5-1.0 hours. The plate was washed 2-3 times with FACS buffer by centrifugation, added with 100 μl fixative solution (4% Paraformaldehyde) per well to suspend the cells. 5-10 minutes later, it was washed 1-2 times with FACS buffer by centrifugation. The cells were suspended with 100 microliters of FACS buffer, FACS (FACSCalibur, BD) was used for detection and the results were analyzed.

First: B1
Second: B2
The Mean fluorescence intensity of the first is higher: 139 MFI for the first, 120 MFI for the second.

Going from B3 to B4, the Mean fluorescence intensity falls from 153 MFI to 134 MFI.

B5 was tested, and the Mean fluorescence intensity was 52.2 MFI.

Molecular target: T2, human LAG-3 on cells (HEK293-hLAG-3 …)
Assay: FACS, HEK293-hLAG-3, antibody 8.000 nM
From the text: as §1

Compared with B6, B7 is higher in Mean fluorescence intensity: 99.4 for the first, 137 for the second.

First: B8
Second: B9
The Mean fluorescence intensity of the first is higher: 136 for the first, 129 for the second.

B10 was tested, and the Mean fluorescence intensity was 93.5.

Molecular target: T3, monkey LAG-3 on cells (HEK293-cLAG-3 …)
Assay: FACS, HEK293-cLAG-3, antibody 0.013 nM
From the text: as §1

Going from B6 to B7, the Mean fluorescence intensity rises from 2.89 to 3.52.

First: B8
Second: B9
The Mean fluorescence intensity of the first is higher: 3.39 for the first, 3.36 for the second.

With B10 the Mean fluorescence intensity was 3.46.

Molecular target: T4, mouse LAG-3 protein with hFc tag …
Assay: ELISA, mLAG-3-hFc coated; 0.0001 nM
Method: The plate was sealed with plastic film and incubated overnight at 4° C. The plate was washed 2 times with the plate washing solution (PBS+0.01% Tween20) on the next day, and added with the blocking solution (PBS+0.01% Tween20+1% BSA) and blocked at room temperature for 1-2 hours. The blocking solution was poured out, and the plate was added with 50-100 μl of the antibody sample to be tested to each well, incubated at 37° C. for 1-2 hours, and washed 2-3 times with a plate washing solution (PBS+0.01% Tween20). HRP (horseradish peroxidase) labeled secondary antibody was added, and the plate was incubated at 37° C. for 1-2 hours, and washed 2-3 times with a plate washing solution (PBS+0.01% Tween20). 100 μl of TMB substrate was added to each well. After incubated at room temperature for 15-30 minutes, the plate was added with 100 μl of stop solution (1.0N HCl) to each well.

Compared with B11, B12 is higher in OD450: 0.08 OD450 for the first, 0.09 OD450 for the second.

Compared with B13, B14 is lower in OD450: 0.1 OD450 for the first, 0.09 OD450 for the second.

Work on B15 yielded an OD450 of 0.14 OD450.
